From the RNAGym collection of RNA variant scans (doi:10.7554/elife.80360)

B1: Hairpin Ribozyme (parent)
chain: GUCCUCUUUCACGUGCGCGUGAAAGAGAGAAGUGAACCAGAGAAACACACGUUGUGGUAUAUUACCUGGUA

Variants of: B1
Test: self-cleavage, relative activity (ratio to wild type); higher = more cleavage; co-transcriptional

Going from U14C A35C to G21C A30U, the self-cleavage falls from 0.687 to 0.139.

Going from G21C A30C to G1A G57C, the self-cleavage falls from 0.242 to 0.163.

Compared with A28U C66A, G1U G69U is lower in self-cleavage: 0.194 for the first, 0.101 for the second.

Compared with G19A G32A, C6U A39C is higher in self-cleavage: 0.131 for the first, 0.504 for the second.

First: C37A A45G
Second: U9C G19C
The self-cleavage of the first is lower: 0.0956 for the first, 0.485 for the second.

First: A24U U53G
Second: A41G U60C
The self-cleavage of the first is lower: 0.674 for the first, 1.23 for the second.

First: A30G A35G
Second: C10A A44C
The self-cleavage of the first is lower: 0.125 for the first, 0.141 for the second.

Going from G1C U58A to U33G U52G, the self-cleavage falls from 0.131 to 0.0362.

Going from G32U A49G to A28U A43C, the self-cleavage rises from 0.128 to 0.133.

First: C3U G21U
Second: A30U G51U
The self-cleavage of the first is higher: 0.472 for the first, 0.193 for the second.

First: U7C C46U
Second: C46U A64G
The self-cleavage of the first is higher: 0.195 for the first, 0.021 for the second.

First: C3G A64G
Second: A49G U62C
The self-cleavage of the first is lower: 0.126 for the first, 0.154 for the second.

Going from C16A U63A to U2G G25A, the self-cleavage rises from 0.132 to 0.224.

First: C50G U62C
Second: C6A A22U
The self-cleavage of the first is lower: 0.158 for the first, 0.352 for the second.

First: G15U G17A
Second: A22C A41C
The self-cleavage of the first is lower: 1.05 for the first, 1.22 for the second.

Compared with U7C C66G, C48A G68U is higher in self-cleavage: 0.0988 for the first, 0.16 for the second.

First: C10G U20A
Second: A26U U52A
The self-cleavage of the first is lower: 0.484 for the first, 0.788 for the second.

Going from A23U C38A to G15C C66A, the self-cleavage falls from 0.17 to 0.144.

Going from A47U G57A to U5C G68U, the self-cleavage falls from 0.417 to 0.127.

First: C12G C48G
Second: A61C A64C
The self-cleavage of the first is lower: 0.0599 for the first, 0.0878 for the second.

First: A11U A26U
Second: A36U C50U
The self-cleavage of the first is higher: 0.775 for the first, 0.125 for the second.

Compared with C4G U53G, U63A C65A is higher in self-cleavage: 0.117 for the first, 0.219 for the second.

Compared with A11U G57C, C18G U67A is higher in self-cleavage: 0.182 for the first, 0.229 for the second.

First: G1U A30G
Second: A24G G69U
The self-cleavage of the first is lower: 0.105 for the first, 0.13 for the second.

Going from G57U C66A to G56C A71U, the self-cleavage falls from 0.219 to 0.119.

Compared with C4U C66U, G25C G34C is higher in self-cleavage: 0.234 for the first, 0.967 for the second.

Going from G19A A44G to C46A U62A, the self-cleavage falls from 0.137 to 0.132.

Compared with C10U A23G, A26U A64G is lower in self-cleavage: 0.551 for the first, 0.399 for the second.

First: G42C G54A
Second: C12A G29U
The self-cleavage of the first is lower: 0.159 for the first, 0.201 for the second.

Going from A44U G54C to A26C G34U, the self-cleavage rises from 0.0888 to 1.03.

Going from U9G A61C to A30U G32U, the self-cleavage falls from 0.115 to 0.0889.

Going from A45U U67C to G68C A71C, the self-cleavage rises from 0.0755 to 0.436.

First: C50G G51C
Second: C46A A47G
The self-cleavage of the first is higher: 0.327 for the first, 0.133 for the second.

Compared with U8A A22C, G13C A59C is lower in self-cleavage: 0.594 for the first, 0.11 for the second.

First: G13C C46A
Second: C10A G42C
The self-cleavage of the first is lower: 0.137 for the first, 0.235 for the second.

Compared with C12U U55G, U2A C50A is higher in self-cleavage: 0.181 for the first, 0.219 for the second.

Compared with A22G A45G, G15A A36G is higher in self-cleavage: 0.115 for the first, 1.08 for the second.

Compared with C46G G69C, A26C A45C is higher in self-cleavage: 0.123 for the first, 0.155 for the second.

First: G27U C37G
Second: A26G G29C
The self-cleavage of the first is lower: 0.109 for the first, 0.139 for the second.

Going from G34U A59G to G25A A59G, the self-cleavage falls from 0.23 to 0.138.

First: C12U G56A
Second: G40C C66G
The self-cleavage of the first is lower: 0.177 for the first, 0.519 for the second.

Going from C4G A71U to U7C A49G, the self-cleavage rises from 0.289 to 0.478.

Going from C10U A45G to A47C G51U, the self-cleavage rises from 0.0999 to 0.392.

Compared with A35G G54U, A11U C66A is lower in self-cleavage: 0.513 for the first, 0.139 for the second.

Going from A11G U63A to U7C U55A, the self-cleavage rises from 0.116 to 0.167.

Compared with C12G G17C, C12A U53A is lower in self-cleavage: 0.842 for the first, 0.785 for the second.

Going from C12U A31U to U8A G69C, the self-cleavage rises from 0.112 to 0.191.

Compared with U9C G32C, C6G C50U is higher in self-cleavage: 0.0478 for the first, 0.265 for the second.

First: A41C G42U
Second: G21U C46A
The self-cleavage of the first is higher: 0.231 for the first, 0.0942 for the second.

Going from C16U G25C to C3G A23U, the self-cleavage falls from 0.63 to 0.28.

Going from U2G U52G to C10A A31G, the self-cleavage rises from 0.458 to 0.533.

Going from U7G U55A to G57U U62G, the self-cleavage falls from 0.225 to 0.176.

Compared with A26G A59G, U5C A30U is lower in self-cleavage: 0.158 for the first, 0.11 for the second.

Compared with U20A G32A, A43G U63C is lower in self-cleavage: 0.18 for the first, 0.156 for the second.

Going from G15C G19C to C18G G27U, the self-cleavage falls from 0.786 to 0.199.

First: U20A A64G
Second: C3G C16A
The self-cleavage of the first is higher: 0.562 for the first, 0.324 for the second.

First: A11U C48G
Second: U8C U60G
The self-cleavage of the first is lower: 0.0875 for the first, 0.489 for the second.

Compared with A49G A59G, A24U G68A is higher in self-cleavage: 0.145 for the first, 0.361 for the second.

First: C38U A59U
Second: A28U A47G
The self-cleavage of the first is higher: 0.228 for the first, 0.0453 for the second.

Going from C50G G69C to C3U C48U, the self-cleavage falls from 0.227 to 0.172.

Compared with G68U A71G, U8A A71U is higher in self-cleavage: 0.253 for the first, 0.631 for the second.

First: C6G U63G
Second: C38G U58C
The self-cleavage of the first is higher: 0.19 for the first, 0.185 for the second.

First: G17A A61U
Second: C50U A61U
The self-cleavage of the first is higher: 0.208 for the first, 0.13 for the second.

First: A22G G69C
Second: A44G G51C
The self-cleavage of the first is lower: 0.209 for the first, 0.238 for the second.

Compared with C3A G29C, A28C G51U is higher in self-cleavage: 0.102 for the first, 0.746 for the second.

Compared with C4A U63G, U2G U8G is higher in self-cleavage: 0.269 for the first, 0.471 for the second.

First: U7G U62G
Second: A64C U70C
The self-cleavage of the first is higher: 0.223 for the first, 0.0963 for the second.

Going from G1A U20C to C16G U70A, the self-cleavage rises from 0.188 to 0.728.

Going from C16G U70C to A43G A59G, the self-cleavage falls from 0.829 to 0.094.

First: A23C A59C
Second: U8A G27A
The self-cleavage of the first is lower: 0.193 for the first, 0.236 for the second.

First: A30C A59C
Second: A49G U53G
The self-cleavage of the first is lower: 0.0289 for the first, 0.44 for the second.

First: C10G C65U
Second: A47G U63C
The self-cleavage of the first is higher: 0.307 for the first, 0.248 for the second.

Going from G51A G56A to U2A G69U, the self-cleavage falls from 0.197 to 0.151.

Going from A43C A59C to U9C U67A, the self-cleavage falls from 0.195 to 0.174.

Going from U33A A47U to U20C C48G, the self-cleavage falls from 0.127 to 0.104.

Compared with A35G G69C, C46G G51U is lower in self-cleavage: 0.204 for the first, 0.164 for the second.

Compared with C6U C65U, A11G U33G is lower in self-cleavage: 0.323 for the first, 0.131 for the second.

Going from C10U G56U to A31U U52C, the self-cleavage falls from 0.162 to 0.116.

Going from C3G U53A to U5A G21A, the self-cleavage rises from 0.212 to 0.378.

Compared with A49G G56C, C3G A11G is higher in self-cleavage: 0.155 for the first, 0.18 for the second.

Compared with A11U C16G, U55A G68U is lower in self-cleavage: 0.653 for the first, 0.17 for the second.

First: C16U G68C
Second: C16G A49C
The self-cleavage of the first is higher: 0.22 for the first, 0.117 for the second.

First: A24U A35U
Second: G42A A43U
The self-cleavage of the first is higher: 0.584 for the first, 0.215 for the second.

U7C G57C gave a self-cleavage of 0.107.
